In publication PMC7954794 (2021):

B1: S. cerevisiae Abp1 (full length; SH3 domain 535-592 mutated) / Hua2 (parent complex)
chain 1: MALEPIDYTTHSREIDAEYLKIVRGSDPDTTWLIISPNAKKEYEPESTGSSFHDFLQLFDETKVQYGLARVSPPGSDVEKIIIIGWCPDSAPLKTRASFAANFAAVANNLFKGYHVQVTARDEDDLDENELLMKISNAAGARYSIQTSSKQQGKASTPPVKKSFTPSKSPAPVSKKEPVKTPSPAPAAKISSRVNDNNDDDDWNEPELKERDFDQAPLKPNQSSYKPIGKIDLQKVIAEEKAKEDPRLVQKPTAAGSKIDPSSDIANLKNESKLKRDSEFNSFLGTTKPPSMTESSLKNDDDKVIKGFRNEKSPAQLWAERKAKQNSGNAETKAEAPKPEVPEDEPEGEPDVKDLKSKFEGLAASEKEEEEMENKFAPPPKKSEPTIISPKPFSKPQEPVKAEEAEQPKTDYKKIGNPLPGMHIEADNEEEPEENDDDWDDDEDEAAQPPLPSRNVASGAPVQKEEPEQEEIAPSLPSRNSIPAPKQEEAPEQAPEEEIEEEAEEAAPQLPSRSSAAPPPPPRRATPEKKPKENPWATAEYDYDAAEDNELTFVENDKIINIEFVDDDWWLGELEKDGSKGLFPSNYVSLGN
chain 2: MQQTKFGKMYLDHDSVVEYSEDEIVEADRITLGYKKRLSMIENQMRHLLEDFSLDVQQIEPILADLQKYYDAFLQLLQKRNKSLQCKRSTHQPVPSPMNSQTSTNAKVNLSGKLMKFQLNSVQKFDEENILRILQNKIEFEHYFQIDKGKKQKVLLLAVYQCLNGPTRLHKVLNIEGIIHNNSIRTILGKQVSSSKWTVFLYDVKLVLLAHRQDVPNLETSKMIVRYGDLFPCALYFKDHTAY

Variants of: B1
Assay: DHFR protein-fragment complementation in yeast (Abp1-DHFR F[1,2] x partner-DHFR F[3]), deep mutational scanning, second methotrexate selection vs reference; S. cerevisiae, DHFR-PCA selection in liquid with methotrexate at 30 C, two 72 h selections (the score uses the second); reference = the pre-selection culture

In order of falling screen value:
1. chain 1 MALEPIDYTTHSREIDAEYLKIVRGSDPDTTWLIISPNAKKEYEPESTGSSFHDFLQLFDETKVQYGLARVSPPGSDVEKIIIIGWCPDSAPLKTRASFAANFAAVANNLFKGYHVQVTARDEDDLDENELLMKISNAAGARYSIQTSSKQQGKASTPPVKKSFTPSKSPAPVSKKEPVKTPSPAPAAKISSRVNDNNDDDDWNEPELKERDFDQAPLKPNQSSYKPIGKIDLQKVIAEEKAKEDPRLVQKPTAAGSKIDPSSDIANLKNESKLKRDSEFNSFLGTTKPPSMTESSLKNDDDKVIKGFRNEKSPAQLWAERKAKQNSGNAETKAEAPKPEVPEDEPEGEPDVKDLKSKFEGLAASEKEEEEMENKFAPPPKKSEPTIISPKPFSKPQEPVKAEEAEQPKTDYKKIGNPLPGMHIEADNEEEPEENDDDWDDDEDEAAQPPLPSRNVASGAPVQKEEPEQEEIAPSLPSRNSIPAPKQEEAPEQAPEEEIEEEAEEAAPQLPSRSSAAPPPPPRRATPEKKPKENPWATAEYDYDAAEDNELTFVENDKIINIEFVDDDWWLGELEKDGSKGLFPSNYVSLQN [chain 1 G591Q]  0.531 DMS score: mean over two replicates of log2(f_test/f_ref + 0.5)/ln 2, minus the synonymous-codon median (not a log2 …
2. chain 1 MALEPIDYTTHSREIDAEYLKIVRGSDPDTTWLIISPNAKKEYEPESTGSSFHDFLQLFDETKVQYGLARVSPPGSDVEKIIIIGWCPDSAPLKTRASFAANFAAVANNLFKGYHVQVTARDEDDLDENELLMKISNAAGARYSIQTSSKQQGKASTPPVKKSFTPSKSPAPVSKKEPVKTPSPAPAAKISSRVNDNNDDDDWNEPELKERDFDQAPLKPNQSSYKPIGKIDLQKVIAEEKAKEDPRLVQKPTAAGSKIDPSSDIANLKNESKLKRDSEFNSFLGTTKPPSMTESSLKNDDDKVIKGFRNEKSPAQLWAERKAKQNSGNAETKAEAPKPEVPEDEPEGEPDVKDLKSKFEGLAASEKEEEEMENKFAPPPKKSEPTIISPKPFSKPQEPVKAEEAEQPKTDYKKIGNPLPGMHIEADNEEEPEENDDDWDDDEDEAAQPPLPSRNVASGAPVQKEEPEQEEIAPSLPSRNSIPAPKQEEAPEQAPEEEIEEEAEEAAPQLPSRSSAAPPPPPRRATPEKKPKENPWATAEYDYDAAEDNELTFVENDKIINIEFVDDDWWLGELEKDGSKGLFPSNYVWLGN [chain 1 S589W]  0.0382 DMS score: mean over two replicates of log2(f_test/f_ref + 0.5)/ln 2, minus the synonymous-codon median (not a log2 …
3. chain 1 MALEPIDYTTHSREIDAEYLKIVRGSDPDTTWLIISPNAKKEYEPESTGSSFHDFLQLFDETKVQYGLARVSPPGSDVEKIIIIGWCPDSAPLKTRASFAANFAAVANNLFKGYHVQVTARDEDDLDENELLMKISNAAGARYSIQTSSKQQGKASTPPVKKSFTPSKSPAPVSKKEPVKTPSPAPAAKISSRVNDNNDDDDWNEPELKERDFDQAPLKPNQSSYKPIGKIDLQKVIAEEKAKEDPRLVQKPTAAGSKIDPSSDIANLKNESKLKRDSEFNSFLGTTKPPSMTESSLKNDDDKVIKGFRNEKSPAQLWAERKAKQNSGNAETKAEAPKPEVPEDEPEGEPDVKDLKSKFEGLAASEKEEEEMENKFAPPPKKSEPTIISPKPFSKPQEPVKAEEAEQPKTDYKKIGNPLPGMHIEADNEEEPEENDDDWDDDEDEAAQPPLPSRNVASGAPVQKEEPEQEEIAPSLPSRNSIPAPKQEEAPEQAPEEEIEEEAEEAAPQLPSRSSAAPPPPPRRATPEKKPKENPWATAEYDYDAAEDNELTFVENDKIINIEFVDDDWWLGELEGDGSKGLFPSNYVSLGN [chain 1 K576G]  -0.96 DMS score: mean over two replicates of log2(f_test/f_ref + 0.5)/ln 2, minus the synonymous-codon median (not a log2 …
4. chain 1 MALEPIDYTTHSREIDAEYLKIVRGSDPDTTWLIISPNAKKEYEPESTGSSFHDFLQLFDETKVQYGLARVSPPGSDVEKIIIIGWCPDSAPLKTRASFAANFAAVANNLFKGYHVQVTARDEDDLDENELLMKISNAAGARYSIQTSSKQQGKASTPPVKKSFTPSKSPAPVSKKEPVKTPSPAPAAKISSRVNDNNDDDDWNEPELKERDFDQAPLKPNQSSYKPIGKIDLQKVIAEEKAKEDPRLVQKPTAAGSKIDPSSDIANLKNESKLKRDSEFNSFLGTTKPPSMTESSLKNDDDKVIKGFRNEKSPAQLWAERKAKQNSGNAETKAEAPKPEVPEDEPEGEPDVKDLKSKFEGLAASEKEEEEMENKFAPPPKKSEPTIISPKPFSKPQEPVKAEEAEQPKTDYKKIGNPLPGMHIEADNEEEPEENDDDWDDDEDEAAQPPLPSRNVASGAPVQKEEPEQEEIAPSLPSRNSIPAPKQEEAPEQAPEEEIEEEAEEAAPQLPSRSSAAPPPPPRRATPEKKPKENPWATAEYDYDAAEDNELTFVENDKIINIEFRDDDWWLGELEKDGSKGLFPSNYVSLGN [chain 1 V565R]  -2.71 DMS score: mean over two replicates of log2(f_test/f_ref + 0.5)/ln 2, minus the synonymous-codon median (not a log2 …
5. chain 1 MALEPIDYTTHSREIDAEYLKIVRGSDPDTTWLIISPNAKKEYEPESTGSSFHDFLQLFDETKVQYGLARVSPPGSDVEKIIIIGWCPDSAPLKTRASFAANFAAVANNLFKGYHVQVTARDEDDLDENELLMKISNAAGARYSIQTSSKQQGKASTPPVKKSFTPSKSPAPVSKKEPVKTPSPAPAAKISSRVNDNNDDDDWNEPELKERDFDQAPLKPNQSSYKPIGKIDLQKVIAEEKAKEDPRLVQKPTAAGSKIDPSSDIANLKNESKLKRDSEFNSFLGTTKPPSMTESSLKNDDDKVIKGFRNEKSPAQLWAERKAKQNSGNAETKAEAPKPEVPEDEPEGEPDVKDLKSKFEGLAASEKEEEEMENKFAPPPKKSEPTIISPKPFSKPQEPVKAEEAEQPKTDYKKIGNPLPGMHIEADNEEEPEENDDDWDDDEDEAAQPPLPSRNVASGAPVQKEEPEQEEIAPSLPSRNSIPAPKQEEAPEQAPEEEIEEEAEEAAPQLPSRSSAAPPPPPRRATPEKKPKENPWATAEYDYDAAEDNELTFVENDKIINIEFVTDDWWLGELEKDGSKGLFPSNYVSLGN [chain 1 D566T]  -2.82 DMS score: mean over two replicates of log2(f_test/f_ref + 0.5)/ln 2, minus the synonymous-codon median (not a log2 …
